Common to all, as to test: cell-based or functional assay
For test [1], the target named is T1, Human Meprin beta (human, UniProt Q16820 62-652, limits assumed).
T1 sequence (looked up): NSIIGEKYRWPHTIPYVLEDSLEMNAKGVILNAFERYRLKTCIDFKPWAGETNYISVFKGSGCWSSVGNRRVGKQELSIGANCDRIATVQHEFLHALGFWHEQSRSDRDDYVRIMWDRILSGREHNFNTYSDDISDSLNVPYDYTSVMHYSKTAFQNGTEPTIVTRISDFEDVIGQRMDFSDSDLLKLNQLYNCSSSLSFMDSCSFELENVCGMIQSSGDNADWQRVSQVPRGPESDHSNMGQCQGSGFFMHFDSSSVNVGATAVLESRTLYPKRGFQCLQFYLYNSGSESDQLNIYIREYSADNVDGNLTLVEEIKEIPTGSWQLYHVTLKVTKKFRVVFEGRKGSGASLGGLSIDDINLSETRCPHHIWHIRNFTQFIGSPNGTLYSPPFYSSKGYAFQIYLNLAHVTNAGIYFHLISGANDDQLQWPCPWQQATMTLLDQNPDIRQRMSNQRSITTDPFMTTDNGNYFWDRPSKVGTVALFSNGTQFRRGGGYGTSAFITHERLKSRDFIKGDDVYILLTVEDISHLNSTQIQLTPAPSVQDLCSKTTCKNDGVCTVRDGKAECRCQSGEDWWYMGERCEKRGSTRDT

Test [2] concerns the target T2, ADAM9 (human or mouse ADAM9, enzyme of the in vitro inhibition assay) (human or mouse, UniProt Q13443 206-697, limits assumed).
T2 sequence (looked up): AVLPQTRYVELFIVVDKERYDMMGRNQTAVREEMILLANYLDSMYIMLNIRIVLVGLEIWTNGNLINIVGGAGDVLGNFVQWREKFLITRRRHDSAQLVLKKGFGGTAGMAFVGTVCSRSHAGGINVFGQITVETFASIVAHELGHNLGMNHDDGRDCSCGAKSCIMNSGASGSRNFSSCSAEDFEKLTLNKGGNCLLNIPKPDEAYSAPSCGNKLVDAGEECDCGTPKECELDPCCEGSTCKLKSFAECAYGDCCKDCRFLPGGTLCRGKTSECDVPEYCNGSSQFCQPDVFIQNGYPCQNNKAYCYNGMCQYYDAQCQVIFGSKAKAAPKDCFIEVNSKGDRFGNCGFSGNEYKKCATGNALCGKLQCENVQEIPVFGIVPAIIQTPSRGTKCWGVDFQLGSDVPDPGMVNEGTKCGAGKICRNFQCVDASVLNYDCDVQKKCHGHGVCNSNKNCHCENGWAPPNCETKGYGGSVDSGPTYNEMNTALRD

In test [3] the target is T2, ADAM9 (human or mouse ADAM9, enzyme of …). The source holds these as a separate data set.

Here are results for 18 molecules from patent US20250188434A1 (VERRA THERAPEUTICS, published 2025).

Some results are limits rather than exact numbers.

B1: wild type human ADAM9 prodomain peptide (SEQ ID NO: 2) (peptide)
chain: ARPGFQQTSHLSSYEIITPWRLTRERREAPRPYSKQVSYVIQAEGKEHIIHLERNKDLLPEDFVVYTYNKEGTLITDHPNIQNHCHYRGYVEGVHNSSIALSDCFGLRGLLHLENASYGIEPLQNSSHFEHIIYRMDDVYKEPLKCGVSNKDIEKETAKDEEEEPPSMTQLLRR
B1: the “IC50, inhibition of activated Meprin beta on fluorescent substrate PEPDAB022” value in test [1] was found to be 200 nM. Besides, the “IC50, inhibition of ADAM9 activity on FRET substrate PEPDAB064; prodomain from inclusion bodies” value in test [2] is 20 nM. Further, in test [3], the “IC50, inhibition of ADAM9 activity; wild type prodomain assayed 1 week after dialysis, when dimer formation had occurred” value was determined as 120 nM.

B2: modified ADAM9 prodomain peptide SEQ ID NO: 14 (peptide)
chain: ARPGFQQTSHLSSYEIITPWRLTREAREAPRPYSKQVSYVIQAEGKEHIIHLERNKDLLPEAFVVYTYNKEGTLITDHPNIQNHSHYRGYVEGVHNSSIALSDSFGLRGLLHLENASYGIEPLQNSSHFEHIIYRMDDVYKEPLKSGVSNKDIEKETAKDEEEEPPSMTQLLRR
For B2, the “IC50, inhibition of ADAM9 activity on FRET substrate PEPDAB064; prodomain from inclusion bodies” value in test [2] turned out to be 136 nM.

B3: modified ADAM9 prodomain peptide SEQ ID NO: 18 (peptide)
chain: ARPGFQQTSHLSSYEIITPWRLTRERAEAPRPYSKQVSYVIQAEGKEHIIHLERNKDLLPEDFVVYTYNKEGTLITDHPNIQNHSHYRGYVEGVHNSSIALSDSFGLRGLLHLENASYGIEPLQNSSHFEHIIYRMDSVYKEPLKSGVSNKDIEKETAKDEEEEPPSMTQLLRR
In the case of B3, the “IC50, inhibition of ADAM9 activity on FRET substrate PEPDAB064; prodomain from inclusion bodies” value in test [2] amounted to 181 nM.

B4: pegylated SEQ ID NO: 21 (peptide)
chain: ARPGFQQTSHLSSYEIITPWRLTRERAEAPRPYSKQVSYVIQAEGKEHIIHLERNKDLLPEDFVVYTYNKEGTLITDHPNIQNHSHYRGYVEGVHNSSIALSDSFGLRGLLHLENASYGIEPLQNSSHFEHIIYRMDDVYKEPLKCGVSNKDIEKETAKDEEEEPPSMTQLLRR
modifications: pegylated at cysteine 146 (PEG size not stated for this construct)
B4: in test [2], the “IC50, inhibition of ADAM9 activity on FRET substrate PEPDAB064; prodomain from inclusion bodies” value came out at 40.5 nM.

B5: modified ADAM9 prodomain peptide SEQ ID NO: 16 (peptide)
chain: ARPGFQQTSHLSSYEIITPWRLTRERSEAPRPYSKQVSYVIQAEGKEHIIHLERNKDLLPEDFVVYTYNKEGTLITDHPNIQNHSHYRGYVEGVHNSSIALSDSFGLRGLLHLENASYGIEPLQNSSHFEHIIYRMDDVYKEPLKSGVSNKDIEKETAKDEEEEPPSMTQLLRR
In the case of B5, the “IC50, inhibition of ADAM9 activity on FRET substrate PEPDAB064; prodomain from inclusion bodies” value in test [2] is 29 nM.

B6: modified ADAM9 prodomain peptide SEQ ID NO: 11 (peptide)
chain: ARPGFQQTSHLSSYEIITPWRLTAERREAPRPYSKQVSYVIQAEGKEHIIHLERNKDLLPEDFVVYTYNKEGTLITDHPNIQNHSHYRGYVEGVHNSSIALSDSFGLRGLLHLENASYGIEPLQNSSHFEHIIYRMDDVYKEPLKSGVSNKDIEKETAKDEEEEPPSMTQLLRR
For the molecule B6, in test [2], the “IC50, inhibition of ADAM9 activity on FRET substrate PEPDAB064; prodomain from inclusion bodies” value is > 200 nM and the “IC50, inhibition of ADAM9 activity on FRET substrate PEPDAB064; prodomain from soluble fraction” value (“IC50, inhibition … from soluble fraction” for short) stood at 13.8 nM.

B7: modified ADAM9 prodomain peptide SEQ ID NO: 10 (peptide)
chain: ARPGFQQTSHLSSYEIITPWRLTREAREAPRPYSKQVSYVIQAEGKEHIIHLERNKDLLPEDFVVYTYNKEGTLITDHPNIQNHSHYRGYVEGVHNSSIALSDSFGLRGLLHLENASYGIEPLQNSSHFEHIIYRMDDVYKEPLKSGVSNKDIEKETAKDEEEEPPSMTQLLRR
Regarding B7, in test [2], the “IC50, inhibition … from soluble fraction” value is 49 nM and the “IC50, inhibition of ADAM9 activity on FRET substrate PEPDAB064; prodomain refolded from inclusion bodies (aggregating)” value is > 200 nM.

B8: modified ADAM9 prodomain peptide SEQ ID NO: 13 (peptide)
chain: ARPGFQQTSHLSSYEIITPWRLTRERREAPRPYSKQVSYVIQAEGKEHIIHLERNKDLLPEDFVVYTYNKEGTLITDHPNIQNHSHYRGYVEGVHNSSIALSDSFGLRGLLHLENASYGIEPLQNSSHFEHIIYRMDDVYKEPLKSGVSNKDIEKETAKDEEEEPPSMTQLLRR
B8: the “IC50, inhibition of ADAM9 activity on FRET substrate PEPDAB064; prodomain from inclusion bodies” value in test [2] was 46 nM.

B9: modified ADAM9 prodomain peptide SEQ ID NO: 12 (peptide)
chain: ARPGFQQTSHLSSYEIITPWRLTRERAEAPRPYSKQVSYVIQAEGKEHIIHLERNKDLLPEDFVVYTYNKEGTLITDHPNIQNHSHYRGYVEGVHNSSIALSDSFGLRGLLHLENASYGIEPLQNSSHFEHIIYRMDDVYKEPLKSGVSNKDIEKETAKDEEEEPPSMTQLLRR
As to B9, the “IC50, inhibition of activated Meprin beta on fluorescent substrate PEPDAB022” value in test [1] is 7400 nM. Also, in test [2], the “IC50, inhibition of ADAM9 activity on FRET substrate PEPDAB064; prodomain from inclusion bodies” value amounted to 41 nM and the “IC50, inhibition … from soluble fraction” value came out at 39 nM.

B10: Chemically modified SEQ ID NO: 2 (wild type ADAM9 prodomain labelled with ALEXA FLUOR 647 maleimide ester) (peptide)
chain: ARPGFQQTSHLSSYEIITPWRLTRERREAPRPYSKQVSYVIQAEGKEHIIHLERNKDLLPEDFVVYTYNKEGTLITDHPNIQNHCHYRGYVEGVHNSSIALSDCFGLRGLLHLENASYGIEPLQNSSHFEHIIYRMDDVYKEPLKCGVSNKDIEKETAKDEEEEPPSMTQLLRR
modifications: ALEXA FLUOR 647 brand maleimide ester on its three cysteines (85, 104 and 146 of SEQ ID NO: 2)
Take B10: the “IC50, inhibition of ADAM9 activity on FRET substrate PEPDAB064; prodomain from inclusion bodies” value in test [2] turned out to be 125 nM.

B11: 25-1 (SEQ ID NO: 21), as labelled in Table 5 (peptide)
chain: ARPGFQQTSHLSSYEIITPWRLTRERAEAPRPYSKQVSYVIQAEGKEHIIHLERNKDLLPEDFVVYTYNKEGTLITDHPNIQNHSHYRGYVEGVHNSSIALSDSFGLRGLLHLENASYGIEPLQNSSHFEHIIYRMDDVYKEPLKCGVSNKDIEKETAKDEEEEPPSMTQLLRR
Take B11: the “IC50, inhibition of activated Meprin beta on fluorescent substrate PEPDAB022” value in test [1] came to 2800 nM.

B12: modified ADAM9 prodomain peptide SEQ ID NO: 19 (peptide)
chain: ARPGFQQTSHLSSYEIITPWRLTRERAEAPRPYSKQVSYVIQAEGKEHIIHLERNKDLLPEDFVVYTYNKEGTLITDHPNIQNHSHYRGYVEGVHNSSIALSDSFGLRGLLHLENASYGIEPLQNSSHFEHIIYRMDDVYKEPLKSGVSNKDIEKETAKDNENEPPSMTQLLRR
With B12, in test [2], the “IC50, inhibition of ADAM9 activity on FRET substrate PEPDAB064; prodomain from inclusion bodies” value stood at 33 nM.

B13: pegylated SEQ ID NO: 20 (peptide)
chain: ARPGFQQTSHLSSYEIITPWRLTREAREAPRPYSKQVSYVIQAEGKEHIIHLERNKDLLPEDFVVYTYNKEGTLITDHPNIQNHSHYRGYVEGVHNSSIALSDSFGLRGLLHLENASYGIEPLQNSSHFEHIIYRMDDVYKEPLKSGVSNKDIEKETAKDEEEEPPSMTQLLRRGSGSC
modifications: 20 kDa maleimide PEG on the cysteine of the pentapeptide added to the C-terminus
On to B13, for which, in test [2], the “IC50, inhibition of ADAM9 activity on FRET substrate PEPDAB064; prodomain from inclusion bodies” value amounted to 16 nM.

B14: pegylated SEQ ID NO: 23 (peptide)
chain: ARPGFQQTSHLSSYEIITPWRLTRERAEAPRPYSKQVSYVIQAEGKEHIIHLERNKDLLPEDFVVYTYNKEGTLITDHPNIQNHSHYRGYVEGVHNSSIALSDSFGLRGLLHLENASYGIEPLQNSSHFEHIIYRMDDVYKEPLKSGVSNKDIEKETAKDEEEEPPSMTQLLRRGSGSC
modifications: pegylated at the C-terminus, on the cysteine of the added C-terminal pentapeptide (PEG size not stated for this construct)
Turning to B14, in test [2], the “IC50, inhibition of ADAM9 activity on FRET substrate PEPDAB064; prodomain from inclusion bodies” value stood at 39.9 nM.

B15: 25-3 (SEQ ID NO: 23), as labelled in Table 5 (peptide)
chain: ARPGFQQTSHLSSYEIITPWRLTRERAEAPRPYSKQVSYVIQAEGKEHIIHLERNKDLLPEDFVVYTYNKEGTLITDHPNIQNHSHYRGYVEGVHNSSIALSDSFGLRGLLHLENASYGIEPLQNSSHFEHIIYRMDDVYKEPLKSGVSNKDIEKETAKDEEEEPPSMTQLLRRGSGSC
As for B15, in test [1], the “IC50, inhibition of activated Meprin beta on fluorescent substrate PEPDAB022” value worked out at 5700 nM.

B16: pegylated SEQ ID NO: 22 (peptide)
chain: GSCGSARPGFQQTSHLSSYEIITPWRLTRERAEAPRPYSKQVSYVIQAEGKEHIIHLERNKDLLPEDFVVYTYNKEGTLITDHPNIQNHSHYRGYVEGVHNSSIALSDSFGLRGLLHLENASYGIEPLQNSSHFEHIIYRMDDVYKEPLKSGVSNKDIEKETAKDEEEEPPSMTQLLRR
modifications: pegylated at the N-terminus, on the cysteine of the added N-terminal pentapeptide (PEG size not stated for this construct)
On to B16, for which, in test [2], the “IC50, inhibition of ADAM9 activity on FRET substrate PEPDAB064; prodomain from inclusion bodies” value turned out to be 60 nM.

B17: 25-2 (SEQ ID NO: 22), as labelled in Table 5 (peptide)
chain: GSCGSARPGFQQTSHLSSYEIITPWRLTRERAEAPRPYSKQVSYVIQAEGKEHIIHLERNKDLLPEDFVVYTYNKEGTLITDHPNIQNHSHYRGYVEGVHNSSIALSDSFGLRGLLHLENASYGIEPLQNSSHFEHIIYRMDDVYKEPLKSGVSNKDIEKETAKDEEEEPPSMTQLLRR
Regarding B17, the “IC50, inhibition of activated Meprin beta on fluorescent substrate PEPDAB022” value in test [1] amounted to 3800 nM.

B18: modified ADAM9 prodomain peptide SEQ ID NO: 17 (peptide)
chain: QTSHLSSYEIITPWRLTRERAEAPRPYSKQVSYVIQAEGKEHIIHLERNKDLLPEDFVVYTYNKEGTLITDHPNIQNHSHYRGYVEGVHNSSIALSDSFGLRGLLHLENASYGIEPLQNSSHFEHIIYRMDDVYKEPLKSGVSNKDIEKETAKDEEEEPPSMTQLLRR
Regarding B18, the “IC50, inhibition of ADAM9 activity on FRET substrate PEPDAB064; prodomain from inclusion bodies” value in test [2] stood at 185 nM.
